Reference: patent US20190359697A1 (Scripps Research, published 2019)
Changes are numbered by the printed parent chain.

T1: CD19 (UniProt P15391 20-556, limits assumed)
T1 sequence (looked up): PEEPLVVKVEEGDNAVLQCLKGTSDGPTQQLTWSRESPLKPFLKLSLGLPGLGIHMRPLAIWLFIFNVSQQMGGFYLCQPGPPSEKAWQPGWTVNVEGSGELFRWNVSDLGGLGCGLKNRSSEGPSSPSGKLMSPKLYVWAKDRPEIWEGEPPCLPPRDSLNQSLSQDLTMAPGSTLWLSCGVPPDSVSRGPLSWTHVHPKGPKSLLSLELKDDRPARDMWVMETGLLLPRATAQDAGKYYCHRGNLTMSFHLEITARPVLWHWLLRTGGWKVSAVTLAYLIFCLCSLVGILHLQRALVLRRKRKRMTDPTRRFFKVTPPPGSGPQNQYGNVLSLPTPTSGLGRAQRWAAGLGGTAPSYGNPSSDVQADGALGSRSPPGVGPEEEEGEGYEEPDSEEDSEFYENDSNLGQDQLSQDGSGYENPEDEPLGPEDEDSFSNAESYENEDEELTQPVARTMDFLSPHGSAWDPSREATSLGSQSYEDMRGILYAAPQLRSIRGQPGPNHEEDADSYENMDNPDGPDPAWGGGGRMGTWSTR

T2: CD19 (UniProt P15391 20-556)
T2 chain: T1 sequence (looked up)

B1: hFMCL2b-LCNT/hFMCH4c (Fab, V domains shown)
VH: QVQLQESGPGLVKPSETLSVTCTVSGVSLPDYGVSWIRQPPGKGLEWLGVIWGSETTYYNSALKSRLTISKDNSKNQVSLKMSSLTAADTAVYYCAKHYYYGGSYAMDYWGQGTLVTVSS
VL: DIQMTQSPSSLSASVGDRVTITCRASQDISKYLNWYQQKPGKAVKLLIYHTSRLHSGVPSRFSGSGSGTDYTLTISSLQPEDFATYFCQQGATLPYTFGQGTKLEIK
B2: hFMCL2/H4z (antibody, V domains shown)
VH: B1 VH with A62S
VL: B1 VL with V44P, F87Y
B3: hFMCL2a-LCNT/hFMCH4c (Fab, V domains shown)
VH: B1 VH
VL: B1 VL with F87Y

Legend:
CD19 [1] = molecular target: CD19 (UniProt P15391); assay: cell-based or functional assay
CD19 [2] = molecular target: T1, CD19; assay: cell-based or functional assay
CD19 [3] = molecular target: T2, CD19; assay: flow cytometry cell binding; FIG. 6
CD19 [4] = molecular target: T2, CD19; assay: flow cytometry cell binding; FIG. 8

Row | Binder | EC50 of cytotoxicity (LDH), sCAR-T cells + switch vs CD19+ RS4;11, Average of the repeat assays (CD19 [1]) [pM] | EC50 of cytotoxicity (LDH), sCAR-T cells + switch vs CD19+ RS4;11, assay DTR-5-15 (PBMC) (CD19 [1]) [pM] | EC50 of cytotoxicity (LDH), sCAR-T cells + switch vs CD19+ RS4;11, assay DTR-5-16 (CD4:CD8) (CD19 [1]) [pM] | EC50 of cytotoxicity (LDH), sCAR-T cells + switch vs CD19+ RS4;11, assay DTR-5-50 (PBMC) (CD19 [1]) [pM] | EC50 of cytotoxicity (LDH), sCAR-T cells + switch vs CD19+ RS4;11, assay DTR-5-51 (CD4:CD8) (CD19 [1]) [pM] | EC50 of cytotoxicity (LDH), sCAR-T cells + switch vs CD19+ RS4;11, Average of the repeat assays (CD19 [2]) [pM] | EC50 of cytotoxicity (LDH), sCAR-T cells + switch vs CD19+ RS4;11, assay DTR-5-15 (PBMC) (CD19 [2]) [pM] | EC50 of cytotoxicity (LDH), sCAR-T cells + switch vs CD19+ RS4;11, assay DTR-5-16 (CD4:CD8) (CD19 [2]) [pM] | EC50 of cytotoxicity (LDH), sCAR-T cells + switch vs CD19+ RS4;11, assay DTR-5-50 (PBMC) (CD19 [2]) [pM] | EC50 of cytotoxicity (LDH), sCAR-T cells + switch vs CD19+ RS4;11, assay DTR-5-51 (CD4:CD8) (CD19 [2]) [pM] | EC50 (CD19 [3]) [pM] | EC50 (CD19 [4]) [pM]
1 | B1 | 10.2 | 8.41 | 8.47 | 7.54 | 16.5 | 4.6 | 4.57 | 4.61 | 3.78 | 5.45 | 1260 | 1590
2 | B2 | – | – | – | – | – | – | – | – | – | – | 12400 | 13100
3 | B3 | – | – | – | – | – | 9.5 | 4.43 | 9.32 | 7.05 | 17.2 | 1700 | 1810
